Measured values: patent publication US20040053276A1 (published 2004)
[ ]: non-standard residue; d: D form. pGlu = O=C1CC[C@@H](C(=O)O)N1

B1: human DRL90h-FLAG fusion protein, 9.2 kDa molecule not cleaved at the furin cleavage site (other)
chain: SPILTEKQAKQLLRSRRQDRPSKPGFPDEPMREYMHHLLALEHRAEEQFLEHWLNPHCKPHCDRNRIHPVVDYKDDDDK
notes: Expressed in COS-7 cells from pDRL90h-FLAG; It was detected on Western blots after SDS-PAGE; also called human DRL90-FLAG fusion protein
B2: human DRL90h-FLAG fusion protein, 7.1 kDa molecule cleaved at the furin cleavage site (other)
chain: [pGlu]DRPSKPGFPDEPMREYMHHLLALEHRAEEQFLEHWLNPHCKPHCDRNRIHPVVDYKDDDDK
modifications: also: a pair of intramolecular disulfide bonds
notes: C-terminal processing product of the COS-7 DRL90h-FLAG fusion; The FLAG tail is inferred from detection and purification with anti-FLAG antibody; also called major component of the human DRL90 gene product

Tests used:
[1] = biological target: the molecule itself; assay: non-reducing versus reducing SDS-PAGE and anti-FLAG Western blot; disulfide-linked dimer (approx. 21 kDa)
Description: (§1) Transfection was carried out using 1 µg/well of the pDRL90h-FLAG DNA constructed in Example 3 and Effectene (Qiagen). Twenty-four hours after the transfection, the medium was replaced with serum-free DMEM medium supplemented with 1 ml of 0.1 mM pABSF (Wako Purechemical Industries) and 0.05% CHAPS (Dojin Chemical). Then, the cells were cultured further for 48 hr. The culture supernatant was transferred into Eppendorf sample tubes and centrifuged. After removal of floating cells, the supernatant was concentrated to about 1/10 in volume with Centricon YM-3 ultrafiltration membrane (Millipore). An equal volume of Tricine SDS-PAGE sample buffer (TEFCO) was added to the resultant concentrated culture supernatant. With respect to the cells, they were washed in 1 ml of PBS (Gibco BRL) twice and then 500 l of Tricine SDS-PAGE sample buffer was added thereto. […] After blocking the nitrocellulose filter with PBS containing 0.1% Tween 20 and 50% Block Ace (Snow Brand Milk Products), human DRL90-FLAG fusion protein was detected with antibodies. […] For luminescence, ECL Western Blotting Kit (Amersham Pharmacia Biotech) was used. Chemiluminescence was detected with Hyperfilm ECL (Amersham Pharmacia Biotech). […] The fusion protein in cell fractions was detected as a polypeptide of approx. 9.2 kDa under reducing conditions and as a polypeptide of approx. 21 kDa under non-reducing conditions.

[2] = biological target: B2; assay: non-reducing versus reducing SDS-PAGE and anti-FLAG Western blot; disulfide-linked dimer of the uncleaved and cleaved forms
Description: as §1

[3] = biological target: the molecule itself; assay: non-reducing versus reducing SDS-PAGE and anti-FLAG Western blot; disulfide-linked dimer of the cleaved form
Description: as §1

Binder | binding result [1] | binding result [2] | binding result [3]
B1 | binds | binds | 
B2 |  |  | binds
